Assay results published in the supplement of paper PMC10724198.

What was measured:
[1] = test system: Saccharomyces cerevisiae; test: protein stability index of tFT-peptide fusion in wild type (PSI (0-1 scale)); higher = more stable (slower turnover); settings: genetic background: wild type
Experimental: (§1)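 MPS profiling in S. cerevisiae of two library types built from selected 12-aa C-degron peptides (IN1, IN2, LN1, LN3, VN2, R1-R5, W1-W3, Atg1 and Rpa12 C-termini): saturation mutagenesis libraries and C-terminal +1 capping libraries (13 aa). Each peptide is fused to the C-terminus of a sfGFP-mCherry timer, after a GGGS linker. Cells are FACS-sorted into 8 mCherry/sfGFP bins and sequenced. PSI runs from 0 (unstable) to 1 (stable), measured once in wild type and in the das1Δ or doa10Δ background.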

[2] = test system: Saccharomyces cerevisiae; test: protein stability index of tFT-peptide fusion in deletion strain of DAS1 (PSI (0-1 scale)); higher = more stable (slower turnover)
Experimental: as §1
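For protein stability index of tFT-peptide fusion in deletion strain of DAS1 in this document: PSI is a weighted mean of each variant's read distribution over the sorted stability bins, computed only for variants having over 10 reads in total.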
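For protein stability index of tFT-peptide fusion in wild type in this document: PSI derived as read-weighted mean over the 8 sorting bins, only variants exceeding 10 total reads kept, mCherry placed adjacent to the peptide and sfGFP distal.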

Sequence	protein stability index [1]	protein stability index [2]
KKHKPGQKQKIN	0.143	0.607
RLIIPLPVQFLN	0.018	0.551
ATWRVGLWRGAS	0.487	0.685
ARWRVGLWRGAK	0.669	0.659
PSDAASFWRVVG	0.187	0.702
LKILRQKMNHQND	0.675	0.724
LVVYNSCVACIN	0.245	0.406
PDKRNHLIKLLND	0.638	0.664
VRGAVQGWRLVG	0.157	0.682
PDKRNHLLKLLN	0.157	0.6
SVVYLSCVACIN	0.0146	0.0314
VRGAVGMWRLVG	0.169	0.691
FSMRWTPRYWVN	0.0631	0.59
TKHKKGQKQKIN	0.118	0.639
RLIQPLPVQFGN	0.63	0.611
ITSCGYKFRTNN	0.208	0.674
LVVMLSCVACIN	0.0128	0.0276
ARWRVGLWRGAE	0.644	0.685
ARWRVGMWRGAS	0.458	0.701
YSLAASFWRVVG	0.128	0.67
CTSCGMKFRTNN	0.304	0.715
RLIQPAPVQFLN	0.0579	0.612
PSLVASFWRVVG	0.137	0.686

Sequence	protein stability index [1]	protein stability index [2]
FSMRWTVRYWVN	0.0513	0.454
PDLAASFWRVVG	0.151	0.708
CTSCGYMFRTNN	0.357	0.682
VRGAVGGWRLVY	0.654	0.636
FSMRWTFRYWVNT	0.318	0.539
LVVYLSCVAKIN	0.0143	0.0401
RLIVPLPVQFLN	0.0525	0.607
VRGAVGGWRLVP	0.436	0.686
LPVYLSCVACIN	0.055	0.19
LVVYLSCVACAN	0.0124	0.0251
FSMRWTFRYWVNK	0.522	0.532
ARWRVGPWRGAS	0.577	0.68
LVVYLSCVHCIN	0.0533	0.251
RLIQPLPVQCLN	0.173	0.478
ARWRVGGWRGAS	0.557	0.701
VHGAVGGWRLVG	0.136	0.692
KKHKKGQMQKIN	0.209	0.626
LVVYLSCKACIN	0.0136	0.0225
VRGAVGGWRGVG	0.602	0.673
RLIQPLEVQFLN	0.163	0.665
FKILRQKMNHQN	0.168	0.672
FSMLWTFRYWVN	0.0376	0.346
FSMGWTFRYWVN	0.0807	0.575

Sequence	protein stability index [1]	protein stability index [2]
CTSCGYKFRTNM	0.156	0.731
LCVYLSCVACIN	0.0138	0.0253
FSMRWTFRGWVN	0.313	0.605
RLIQPLVVQFLN	0.045	0.587
KKHKKGQWQKIN	0.106	0.556
FSMRWTFRYWVNH	0.106	0.559
FSMRWTFRYWHN	0.149	0.686
RLPQPLPVQFLN	0.118	0.631
VRGAVGGWRVVG	0.259	0.654
KKHKKGQKQKIT	0.263	0.598
LVVYLSCVACIC	0.0144	0.0309
LVVYLLCVACIN	0.0159	0.0739
PSLAASFWRHVG	0.181	0.704
VRGLVGGWRLVG	0.154	0.678
CISCGYKFRTNN	0.211	0.725
KKHKWGQKQKIN	0.05	0.589
LAVYLSCVACIN	0.0214	0.0886
PSLAMSFWRVVG	0.146	0.673
FSMRWTFEYWVN	0.0782	0.448
KKHKKGQKQPIN	0.637	0.587
LVVYLSCEACIN	0.0807	0.0235
RLIQPLPVQFLNE	0.659	0.676
YTSCGYKFRTNN	0.212	0.691

Sequence	protein stability index [1]	protein stability index [2]
PSLAASDWRVVG	0.627	0.68
VRGAVGGWRLNG	0.234	0.679
LVVYLSCVACIS	0.014	0.0369
RLIQPLPVQFLNQ	0.65	0.673
VRGAVGGWRLVT	0.184	0.675
VMGAVGGWRLVG	0.118	0.681
LKVLRQKMNHQN	0.177	0.675
PSLADSFWRVVG	0.586	0.688
LKILRQKMNHQR	0.67	0.669
LVVYLSCVACINK	0.0222	0.0356
VRGAVGGWFLVG	0.626	0.673
RLIQPLDVQFLN	0.225	0.617
LVVYLSCVALIN	0.0158	0.0501
LVVYLSCVACID	0.0162	0.0175
ARWRQGLWRGAS	0.678	0.616
LVLYLSCVACIN	0.0137	0.0273
IKHKKGQKQKIN	0.109	0.608
PDKRNHLIKLEN	0.611	0.603
WRGAVGGWRLVG	0.174	0.655
CTSCGYKFRTNNE	0.709	0.711
